Drawing on patent EP2385124A2, this text covers percent inhibition for one substance.

The experiment concerns the target GST-DLG1 PDZ domains 1-2 fusion protein (human) (UniProt Q12959). The experiment is described as follows: competition G assay, 100 uM unlabeled 8-mer against 20 uM biotin-labeled AA2L on GST-DLG1.

On to “eight amino acid CLASP-2 peptide MTSSSSVV (unlabeled)”, for which the percent inhibition is above 50%.
